B1: KANK1 (protein, UniProt Q14678 1-1352, looked up)
KN motif and ankyrin repeat …: MAHTTKVNGSASGKAGDILSGDQDKEQKDPYFVETPYGYQLDLDFLKYVDDIQKGNTIKRLNIQKRRKPSVPCPEPRTTSGQQGIWTSTESLSSSNSDDNKQCPNFLIARSQVTSTPISKPPPPLETSLPFLTIPENRQLPPPSPQLPKHNLHVTKTLMETRRRLEQERATMQMTPGEFRRPRLASFGGMGTTSSLPSFVGSGNHNPAKHQLQNGYQGNGDYGSYAPAAPTTSSMGSSIRHSPLSSGISTPVTNVSPMHLQHIREQMAIALKRLKELEEQVRTIPVLQVKISVLQEEKRQLVSQLKNQRAASQINVCGVRKRSYSAGNASQLEQLSRARRSGGELYIDYEEEEMETVEQSTQRIKEFRQLTADMQALEQKIQDSSCEASSELRENGECRSVAVGAEENMNDIVVYHRGSRSCKDAAVGTLVEMRNCGVSVTEAMLGVMTEADKEIELQQQTIESLKEKIYRLEVQLRETTHDREMTKLKQELQAAGSRKKVDKATMAQPLVFSKVVEAVVQTRDQMVGSHMDLVDTCVGTSVETNSVGISCQPECKNKVVGPELPMNWWIVKERVEMHDRCAGRSVEMCDKSVSVEVSVCETGSNTEESVNDLTLLKTNLNLKEVRSIGCGDCSVDVTVCSPKECASRGVNTEAVSQVEAAVMAVPRTADQDTSTDLEQVHQFTNTETATLIESCTNTCLSTLDKQTSTQTVETRTVAVGEGRVKDINSSTKTRSIGVGTLLSGHSGFDRPSAVKTKESGVGQININDNYLVGLKMRTIACGPPQLTVGLTASRRSVGVGDDPVGESLENPQPQAPLGMMTGLDHYIERIQKLLAEQQTLLAENYSELAEAFGEPHSQMGSLNSQLISTLSSINSVMKSASTEELRNPDFQKTSLGKITGNYLGYTCKCGGLQSGSPLSSQTSQPEQEVGTSEGKPISSLDAFPTQEGTLSPVNLTDDQIAAGLYACTNNESTLKSIMKKKDGNKDSNGAKKNLQFVGINGGYETTSSDDSSSDESSSSESDDECDVIEYPLEEEEEEEDEDTRGMAEGHHAVNIEGLKSARVEDEMQVQECEPEKVEIRERYELSEKMLSACNLLKNTINDPKALTSKDMRFCLNTLQHEWFRVSSQKSAIPAMVGDYIAAFEAISPDVLRYVINLADGNGNTALHYSVSHSNFEIVKLLLDADVCNVDHQNKAGYTPIMLAALAAVEAEKDMRIVEELFGCGDVNAKASQAGQTALMLAVSHGRIDMVKGLLACGADVNIQDDEGSTALMCASEHGHVEIVKLLLAQPGCNGHLEDNDGSTALSIALEAGHKDIAVLLYAHVNFAKAQSPGTPRLGRKTSPGPTHRGSFD
B2: GTF3C3 (protein, UniProt Q9Y5Q9 2-886, looked up)
General transcription factor …: SGFSPELIDYLEGKISFEEFERRREERKTREKKSLQEKGKLSAEENPDDSEVPSSSGINSTKSQDKDVNEGETSDGVRKSVHKVFASMLGENEDDEEEEEEEEEEEEEEETPEQPTAGDVFVLEMVLNRETKKMMKEKRPRSKLPRALRGLMGEANIRFARGEREEAILMCMEIIRQAPLAYEPFSTLAMIYEDQGDMEKSLQFELIAAHLNPSDTEEWVRLAEMSLEQDNIKQAIFCYTKALKYEPTNVRYLWERSSLYEQMGDHKMAMDGYRRILNLLSPSDGERFMQLARDMAKSYYEANDVTSAINIIDEAFSKHQGLVSMEDVNIAAELYISNKQYDKALEIITDFSGIVLEKKTSEEGTSEENKAPENVTCTIPDGVPIDITVKLMVCLVHLNILEPLNPLLTTLVEQNPEDMGDLYLDVAEAFLDVGEYNSALPLLSALVCSERYNLAVVWLRHAECLKALGYMERAAESYGKVVDLAPLHLDARISLSTLQQQLGQPEKALEALEPMYDPDTLAQDANAAQQELKLLLHRSTLLFSQGKMYGYVDTLLTMLAMLLKVAMNRAQVCLISSSKSGERHLYLIKVSRDKISDSNDQESANCDAKAIFAVLTSVLTKDDWWNLLLKAIYSLCDLSRFQEAELLVDSSLEYYSFYDDRQKRKELEYFGLSAAILDKNFRKAYNYIRIMVMENVNKPQLWNIFNQVTMHSQDVRHHRFCLRLMLKNPENHALCVLNGHNAFVSGSFKHALGQYVQAFRTHPDEPLYSFCIGLTFIHMASQKYVLRRHALIVQGFSFLNRYLSLRGPCQESFYNLGRGLHQLGLIHLAIHYYQKALELPPLVVEGIELDQLDLRRDIAYNLSLIYQSSGNTGMAQTLLYTYCSI
B3: SERPINH1 (protein, UniProt P50454 19-418, looked up)
Serpin H1: AEVKKPAAAAAPGTAEKLSPKAATLAERSAGLAFSLYQAMAKDQAVENILVSPVVVASSLGLVSLGGKATTASQAKAVLSAEQLRDEEVHAGLGELLRSLSNSTARNVTWKLGSRLYGPSSVSFADDFVRSSKQHYNCEHSKINFRDKRSALQSINEWAAQTTDGKLPEVTKDVERTDGALLVNAMFFKPHWDEKFHHKMVDNRGFMVTRSYTVGVMMMHRTGLYNYYDDEKEKLQIVEMPLAHKLSSLIILMPHHVEPLERLEKLLTKEQLKIWMGKMQKKAVAISLPKGVVEVTHDLQKHLAGLGLTEAIDKNKADLSRMSGKKDLYLASVFHATAFELDTDGNPFDQDIYGREELRSPKLFYADHPFIFLVRDTQSGSLLFIGRLVRPKGDKMRDEL
B4: RALGPS2 (protein, UniProt Q86X27 1-583, looked up)
Ras-specific guanine …: MDLMNGQASSVNIAATASEKSSSSESLSDKGSELKKSFDAVVFDVLKVTPEEYAGQITLMDVPVFKAIQPDELSSCGWNKKEKYSSAPNAVAFTRRFNHVSFWVVREILHAQTLKIRAEVLSHYIKTAKKLYELNNLHALMAVVSGLQSAPIFRLTKTWALLSRKDKTTFEKLEYVMSKEDNYKRLRDYISSLKMTPCIPYLGIYLSDLTYIDSAYPSTGSILENEQRSNLMNNILRIISDLQQSCEYDIPMLPHVQKYLNSVQYIEELQKFVEDDNYKLSLKIEPGTSTPRSAASREDLVGPEVGASPQSGRKSVAAEGALLPQTPPSPRNLIPHGHRKCHSLGYNFIHKMNTAEFKSATFPNAGPRHLLDDSVMEPHAPSRGQAESSTLSSGISIGSSDGSELSEETSWPAFERNRLYHSLGPVTRVARNGYRSHMKASSSAESEDLAVHLYPGAVTIQGVLRRKTLLKEGKKPTVASWTKYWAALCGTQLFYYAAKSLKATERKHFKSTSNKNVSVIGWMVMMADDPEHPDLFLLTDSEKGNSYKFQAGNRMNAMLWFKHLSAACQSNKQQVPTNLMTFE
B5: HNRNPL (protein, UniProt P14866 1-589, looked up)
Heterogeneous nuclear …: MSRRLLPRAEKRRRRLEQRQQPDEQRRRSGAMVKMAAAGGGGGGGRYYGGGSEGGRAPKRLKTDNAGDQHGGGGGGGGGAGAAGGGGGGENYDDPHKTPASPVVHIRGLIDGVVEADLVEALQEFGPISYVVVMPKKRQALVEFEDVLGACNAVNYAADNQIYIAGHPAFVNYSTSQKISRPGDSDDSRSVNSVLLFTILNPIYSITTDVLYTICNPCGPVQRIVIFRKNGVQAMVEFDSVQSAQRAKASLNGADIYSGCCTLKIEYAKPTRLNVFKNDQDTWDYTNPNLSGQGDPGSNPNKRQRQPPLLGDHPAEYGGPHGGYHSHYHDEGYGPPPPHYEGRRMGPPVGGHRRGPSRYGPQYGHPPPPPPPPEYGPHADSPVLMVYGLDQSKMNCDRVFNVFCLYGNVEKVKFMKSKPGAAMVEMADGYAVDRAITHLNNNFMFGQKLNVCVSKQPAIMPGQSYGLEDGSCSYKDFSESRNNRFSTPEQAAKNRIQHPSNVLHFFNAPLEVTEENFFEICDELGVKRPSSVKVFSGKSERSSSGLLEWESKSDALETLGFLNHYQMKNPNGPYPYTLKLCFSTAQHAS
B6: HNRNPA2B1 (protein, UniProt P22626 1-353, looked up)
Heterogeneous nuclear …: MEKTLETVPLERKKREKEQFRKLFIGGLSFETTEESLRNYYEQWGKLTDCVVMRDPASKRSRGFGFVTFSSMAEVDAAMAARPHSIDGRVVEPKRAVAREESGKPGAHVTVKKLFVGGIKEDTEEHHLRDYFEEYGKIDTIEIITDRQSGKKRGFGFVTFDDHDPVDKIVLQKYHTINGHNAEVRKALSRQEMQEVQSSRSGRGGNFGFGDSRGGGGNFGPGPGSNFRGGSDGYGSGRGFGDGYNGYGGGPGGGNFGGSPGYGGGRGGYGGGGPGYGNQGGGYGGGYDNYGGGNYGSGNYNDFGNYNQQPSNYGPMKSGNFGGSRNMGGPYGGGNYGPGGSGGSGGYGGRSRY

These molecules were tested on GFP-14-3-3β (assay: GFP-14-3-3β co-IP with LC-MS/MS, untreated GFP-14-3-3β versus GFP control (14-3-3 interactome)). Conditions: untreated vs GFP; LFQ intensities, replicates 1-3.
Assay type: binding, human

Molecule	Difference (log2), untreated vs GFP [log2]
B1	3.839
B2	0.6927
B3	-0.8949
B4	6.032
B5	0.7735
B6	1.703

The molecules below were run on GFP-14-3-3β and its binding proteins (assay: GFP-14-3-3β co-IP with LC-MS/MS label-free quantification, untreated versus PP1c-treated). Conditions: PP1 vs untreated; LFQ intensities, replicates 1-3.
Parameters: species or system human

Difference (log2), PP1 vs untreated [log2]	Molecule
-1.352	B1
-1.189	B2
-1.158	B3
-1.125	B4
-1.243	B5
-1.185	B6

— paper PMC7367873, “Dissecting the sequence determinants for dephosphorylation by the catalytic subunits of phosphatases PP1 and PP2A” (Nature Communications, 2020)
